Drawing on patent US20180147257A1, this text covers Log 10 fold change of sgRNAs in YT-1 GeCKO library cells sorted for non-binding to BTN3A-IgG4 (Log 10 fold change) for 1 substance.

Some targets named below: CD163 on YT-1 cells (UniProt Q86VB7); FLT1 on YT-1 cells (UniProt P17948); HLA-E on YT-1 cells (UniProt P13747); LTβR on YT-1 cells (UniProt P36941); ROR2 on YT-1 cells (UniProt Q01974).
What all share (experiment): cell-based or functional assay

LTβR on YT-1 cells, sequence (P36941 31-435 limits assumed): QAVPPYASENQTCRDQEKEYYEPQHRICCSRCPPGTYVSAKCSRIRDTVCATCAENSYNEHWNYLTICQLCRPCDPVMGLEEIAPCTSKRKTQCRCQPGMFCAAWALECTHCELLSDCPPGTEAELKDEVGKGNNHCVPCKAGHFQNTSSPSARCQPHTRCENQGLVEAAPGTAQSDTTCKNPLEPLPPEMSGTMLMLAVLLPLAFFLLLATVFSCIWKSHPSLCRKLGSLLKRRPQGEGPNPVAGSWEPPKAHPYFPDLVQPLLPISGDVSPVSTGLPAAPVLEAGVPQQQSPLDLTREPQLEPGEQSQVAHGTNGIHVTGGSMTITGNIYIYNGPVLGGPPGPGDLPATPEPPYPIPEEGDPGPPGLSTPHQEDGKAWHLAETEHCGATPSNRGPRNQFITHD
FLT1 on YT-1 cells, sequence (P17948 27-1338 limits assumed): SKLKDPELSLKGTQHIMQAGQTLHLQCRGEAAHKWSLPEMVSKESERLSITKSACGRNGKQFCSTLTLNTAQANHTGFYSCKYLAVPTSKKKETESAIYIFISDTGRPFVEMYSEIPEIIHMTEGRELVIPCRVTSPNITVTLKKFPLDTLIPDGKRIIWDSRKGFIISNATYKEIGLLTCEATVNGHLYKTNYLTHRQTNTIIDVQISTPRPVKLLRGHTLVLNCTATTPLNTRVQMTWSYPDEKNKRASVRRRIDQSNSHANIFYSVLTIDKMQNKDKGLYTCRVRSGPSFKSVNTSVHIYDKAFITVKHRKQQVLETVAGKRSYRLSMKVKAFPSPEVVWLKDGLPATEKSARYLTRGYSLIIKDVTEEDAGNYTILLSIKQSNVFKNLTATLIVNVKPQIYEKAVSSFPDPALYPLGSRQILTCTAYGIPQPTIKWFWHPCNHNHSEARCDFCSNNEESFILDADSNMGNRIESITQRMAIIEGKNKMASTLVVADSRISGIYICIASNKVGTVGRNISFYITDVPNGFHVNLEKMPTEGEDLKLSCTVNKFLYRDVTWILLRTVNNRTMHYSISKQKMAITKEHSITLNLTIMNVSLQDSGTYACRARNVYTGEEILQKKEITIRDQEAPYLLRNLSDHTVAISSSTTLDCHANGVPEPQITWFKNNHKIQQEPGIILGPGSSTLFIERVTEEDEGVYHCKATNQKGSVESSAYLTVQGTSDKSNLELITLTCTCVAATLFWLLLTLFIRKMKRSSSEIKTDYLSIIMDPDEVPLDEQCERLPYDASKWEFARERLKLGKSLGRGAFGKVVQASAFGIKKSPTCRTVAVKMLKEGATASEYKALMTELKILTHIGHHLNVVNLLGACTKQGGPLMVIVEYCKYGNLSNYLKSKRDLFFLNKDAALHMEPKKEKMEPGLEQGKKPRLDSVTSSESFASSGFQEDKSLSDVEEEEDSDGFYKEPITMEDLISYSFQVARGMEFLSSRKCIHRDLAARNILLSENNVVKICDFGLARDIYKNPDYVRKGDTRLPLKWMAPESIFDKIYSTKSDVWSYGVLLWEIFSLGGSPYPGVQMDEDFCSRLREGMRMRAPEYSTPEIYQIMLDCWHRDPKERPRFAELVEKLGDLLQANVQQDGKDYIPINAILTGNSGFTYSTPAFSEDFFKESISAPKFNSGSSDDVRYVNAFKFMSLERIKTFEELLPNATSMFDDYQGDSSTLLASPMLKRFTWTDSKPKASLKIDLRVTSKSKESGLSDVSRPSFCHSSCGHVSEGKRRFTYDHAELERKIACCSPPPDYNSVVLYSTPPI
CD163 on YT-1 cells, sequence (Q86VB7 42-1156): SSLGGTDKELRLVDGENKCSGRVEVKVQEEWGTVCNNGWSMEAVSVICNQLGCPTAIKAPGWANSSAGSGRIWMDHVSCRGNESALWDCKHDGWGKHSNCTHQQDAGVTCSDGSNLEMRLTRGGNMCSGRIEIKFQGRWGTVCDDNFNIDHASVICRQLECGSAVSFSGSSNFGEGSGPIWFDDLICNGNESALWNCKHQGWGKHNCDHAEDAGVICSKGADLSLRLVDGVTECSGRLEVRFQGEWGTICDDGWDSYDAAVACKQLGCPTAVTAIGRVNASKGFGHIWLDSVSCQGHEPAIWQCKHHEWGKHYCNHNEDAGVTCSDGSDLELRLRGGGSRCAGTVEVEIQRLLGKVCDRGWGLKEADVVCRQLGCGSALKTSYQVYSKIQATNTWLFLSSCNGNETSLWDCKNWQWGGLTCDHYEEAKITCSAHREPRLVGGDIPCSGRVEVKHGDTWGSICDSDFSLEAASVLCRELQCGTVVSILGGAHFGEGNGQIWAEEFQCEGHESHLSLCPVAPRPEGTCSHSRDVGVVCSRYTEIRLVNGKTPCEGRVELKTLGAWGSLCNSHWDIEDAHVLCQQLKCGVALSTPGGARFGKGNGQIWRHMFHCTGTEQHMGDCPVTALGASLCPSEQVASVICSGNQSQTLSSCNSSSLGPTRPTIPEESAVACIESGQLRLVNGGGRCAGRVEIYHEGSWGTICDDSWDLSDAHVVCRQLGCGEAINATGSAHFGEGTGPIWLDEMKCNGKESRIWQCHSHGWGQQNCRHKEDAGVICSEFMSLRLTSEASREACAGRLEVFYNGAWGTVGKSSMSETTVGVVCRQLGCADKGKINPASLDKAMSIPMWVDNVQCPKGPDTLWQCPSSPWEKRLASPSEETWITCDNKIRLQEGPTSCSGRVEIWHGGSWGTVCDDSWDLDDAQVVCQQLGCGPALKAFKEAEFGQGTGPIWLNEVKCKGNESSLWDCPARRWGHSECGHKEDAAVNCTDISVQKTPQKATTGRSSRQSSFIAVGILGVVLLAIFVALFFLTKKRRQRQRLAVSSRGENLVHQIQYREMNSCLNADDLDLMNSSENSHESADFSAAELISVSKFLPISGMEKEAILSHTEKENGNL
HLA-E on YT-1 cells, sequence (P13747 22-358 limits assumed): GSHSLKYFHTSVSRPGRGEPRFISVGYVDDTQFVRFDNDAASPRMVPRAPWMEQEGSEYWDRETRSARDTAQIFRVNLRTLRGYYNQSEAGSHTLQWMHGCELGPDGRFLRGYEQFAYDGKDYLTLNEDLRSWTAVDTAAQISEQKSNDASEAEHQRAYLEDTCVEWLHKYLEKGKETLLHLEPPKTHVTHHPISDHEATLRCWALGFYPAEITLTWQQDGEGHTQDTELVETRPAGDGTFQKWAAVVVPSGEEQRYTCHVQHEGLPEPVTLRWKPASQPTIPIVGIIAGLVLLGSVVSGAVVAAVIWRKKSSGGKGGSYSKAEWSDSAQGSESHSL
ROR2 on YT-1 cells, sequence (Q01974 34-943 limits assumed): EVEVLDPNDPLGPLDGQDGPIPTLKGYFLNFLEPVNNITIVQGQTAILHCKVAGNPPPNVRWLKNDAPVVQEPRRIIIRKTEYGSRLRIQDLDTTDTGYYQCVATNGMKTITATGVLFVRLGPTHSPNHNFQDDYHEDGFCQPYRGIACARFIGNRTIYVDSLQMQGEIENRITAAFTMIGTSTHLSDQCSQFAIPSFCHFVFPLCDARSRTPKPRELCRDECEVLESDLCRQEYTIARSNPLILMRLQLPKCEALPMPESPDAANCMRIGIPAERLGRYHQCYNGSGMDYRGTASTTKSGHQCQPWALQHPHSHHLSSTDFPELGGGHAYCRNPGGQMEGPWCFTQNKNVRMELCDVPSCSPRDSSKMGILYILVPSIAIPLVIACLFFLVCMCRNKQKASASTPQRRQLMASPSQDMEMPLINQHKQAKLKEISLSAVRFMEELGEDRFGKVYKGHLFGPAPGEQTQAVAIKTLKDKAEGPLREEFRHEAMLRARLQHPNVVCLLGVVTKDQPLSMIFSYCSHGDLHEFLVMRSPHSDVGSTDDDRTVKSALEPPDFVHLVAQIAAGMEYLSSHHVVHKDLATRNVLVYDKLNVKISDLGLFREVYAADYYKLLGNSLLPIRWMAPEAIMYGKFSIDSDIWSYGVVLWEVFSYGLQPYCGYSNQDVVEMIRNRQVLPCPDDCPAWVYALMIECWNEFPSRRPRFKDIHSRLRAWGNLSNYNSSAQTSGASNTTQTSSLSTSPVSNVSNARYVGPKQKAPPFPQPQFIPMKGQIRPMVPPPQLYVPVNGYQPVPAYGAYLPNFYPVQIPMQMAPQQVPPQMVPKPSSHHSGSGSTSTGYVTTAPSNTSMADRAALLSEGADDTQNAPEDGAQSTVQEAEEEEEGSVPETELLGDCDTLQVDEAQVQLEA

Consider “fluorescently coupled BTN3A ectodomain fused to the Fc fragment of human IgG4 (Fc fusion)”, for which the Log 10 fold change of sgRNAs in YT-1 GeCKO library cells sorted for non-binding to BTN3A-IgG4 (Log 10 fold change) with CD163 on YT-1 cells stood at 3.56; with FLT1 on YT-1 cells it was 3.7; with HLA-E on YT-1 cells, 3.66; in the assay with LTβR on YT-1 cells, 3.69; with ROR2 on YT-1 cells, 3.54.
